Measured values reported in patent US8372961B2, “Polynucleotides encoding concatameric immunoadhesion molecules” (Medexgen Co., Ltd., priority 2001, dated 2013).

Tests used:
TNFβ = molecular target: T1, TNFβ (Homo sapiens, UniProt P01374); test: Neutralization of TNFβ cytotoxicity on L929 cells (crystal violet staining); assay type: cell-based; settings: for IC50 of cytotoxicity inhibition, TNFβ treated: actinomycin D 3 μg/ml, TNFβ 0.5~2 ng/ml (100% cytotoxicity), 16~18 hrs
T1 sequence (P01374 35-205): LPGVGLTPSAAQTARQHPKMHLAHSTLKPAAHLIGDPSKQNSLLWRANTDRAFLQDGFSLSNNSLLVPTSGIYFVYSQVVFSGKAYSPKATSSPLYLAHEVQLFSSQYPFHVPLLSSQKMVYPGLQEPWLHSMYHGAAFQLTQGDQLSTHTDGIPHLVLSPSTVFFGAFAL
Protocol: (§1) An L929 cell [ATCC, Mus musculus (mouse), NCTC clone 929 (derivative of strain L; L-929; L cell) was used for testing the effect of TNFR/Fc fusion protein on the inhibition of cytotoxicity induced by TNFα and TNFβ. This analysis was based on the TNFR activity of inhibiting cytotoxicity induced by TNF (Scallon et al., Cytokine 7:759, 1995).
(§2) L929 cells were inoculated to be 3×10^4 cells/well in 96-well plates, and incubated at 37° C. for 24 hrs in a CO2 incubator. Subsequently, actinomycin D (Sigma, USA) was added to 3 μg/ml, and cells were incubated for 16˜18 hrs with TNFα and TNFβ in the concentration of expressing 100% cytotoxicity (0.5˜2 ng/ml), and with serially 10 times diluted TNFR sample. Then, the cells in the 96-well plate were stained by the staining reagent, crystal violet (Wake Pure Chemical Industries, Japan) and the activity of the cells was estimated by the degree of absorbance at 595 nm wavelength using a spectrophotometer (Bio-Rad, Model-550, Japan).

TNFα = TNFα (Homo sapiens, UniProt P01375); test: Neutralization of TNFα cytotoxicity on L929 cells (crystal violet staining); assay type: cell-based; settings: for IC50 of cytotoxicity inhibition, TNFα treated: actinomycin D 3 μg/ml, TNFα 0.5~2 ng/ml (100% cytotoxicity), 16~18 hrs
TNFα, sequence (P01375 77-233 limits assumed, species assumed): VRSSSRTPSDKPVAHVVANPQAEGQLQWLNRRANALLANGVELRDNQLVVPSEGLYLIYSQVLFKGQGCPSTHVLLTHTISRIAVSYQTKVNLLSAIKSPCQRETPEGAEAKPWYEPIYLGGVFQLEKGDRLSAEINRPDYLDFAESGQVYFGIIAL
Protocol: as §1, §2

Substance | IC50 of cytotoxicity inhibition, TNFβ treated (TNFβ) | inhibitory effect on the cytotoxicity induced by TNFβ, compared with simple dimeric fusion proteins (TNFβ; versus TNFR1/Ig and TNFR2/Ig) | IC50 of cytotoxicity inhibition, TNFα treated (TNFα) | inhibitory effect on the cytotoxicity induced by TNFα, compared with simple dimeric fusion proteins (TNFα; versus TNFR1/Ig and TNFR2/Ig)
[TNFR1-TNFR1/Fc]2: concatameric fusion dimeric protein: two TNFR1 soluble extracellular domains in tandem fused to IgG1 Fc; monomer SEQ ID NO: 6 | 20 µg/mL | higher inhibitory effect | 9 µg/mL | higher inhibitory effect
[TNFR1/Fc]2: conventional simple fusion dimeric protein: soluble extracellular domain of human TNFR1 fused to IgG1 Fc; monomer SEQ ID NO: 2 [reference compound] | 129 µg/mL |  | 63 µg/mL | 
